Results reported in patent publication US20230129258A1 (Bicycle, published 2023).
Starred links: 1 amine or outer side, 2 acyl side, 3 side chain; linkers in the order of their positions; H or OH if unused. Positions of bridges follow the written chain, without caps; N, C: chain ends. Non-standard residues stand in square brackets, D forms with d. Chains are numbered I, II in the order given. No end group written: not given here. dLys(PYA) = D-lysine Nε-acylated with 4-pentynoic acid, clicked (triazole) to the linker azide, O=C(CCc1cn([*:3])nn1)NCCCC[C@@H](N[*:1])C(=O)[*:2]; TATA = O=C(CC[*:1])N1CN(C(=O)CC[*:2])CN(C(=O)CC[*:3])C1; 1Nal = N[C@@H](Cc1cccc2ccccc12)C(=O)O; Hyp = O=C(O)[C@@H]1C[C@@H](O)CN1; hArg = N=C(N)NCCCC[C@H](N)C(=O)O; tBuAla = CC(C)(C)C[C@H](N)C(=O)O; Nle = CCCC[C@H](N)C(=O)O

Assays:
[1] = target: T1, human Nectin-4 extracellular domain (human, UniProt Q96NY8 32-349, biotinylated where captured on the streptavidin chip); assay: SPR sandwich assay, BCY11863 captured on biotinylated human CD137, soluble Nectin-4 ECD passed over, n = 4
T1 construct: extracellular domain; also called Nectin-4 (human); Biotinylated - Nectin-4 extracellular domain
T1 sequence (looked up): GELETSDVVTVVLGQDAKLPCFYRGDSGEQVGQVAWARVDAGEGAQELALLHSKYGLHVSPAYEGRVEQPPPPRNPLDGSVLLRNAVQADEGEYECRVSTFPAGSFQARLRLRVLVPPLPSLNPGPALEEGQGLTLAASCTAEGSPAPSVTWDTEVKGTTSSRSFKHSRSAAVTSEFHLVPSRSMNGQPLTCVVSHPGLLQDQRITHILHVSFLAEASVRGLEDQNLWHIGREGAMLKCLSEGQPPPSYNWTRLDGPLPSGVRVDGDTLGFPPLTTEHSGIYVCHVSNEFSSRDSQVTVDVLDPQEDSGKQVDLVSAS

[2] = target: T2, cyno (NHP) CD137 extracellular domain (cyno (NHP), UniProt A9YYE7 24-186); assay: SPR dual binding, BCY11863 captured on biotinylated human Nectin-4, soluble CD137 ECD passed over, n = 3
T2 construct: extracellular domain

[3] = target: T3, human CD137 extracellular domain (human, UniProt Q07011 24-186, biotinylated where captured on the streptavidin chip); assay: SPR dual binding, BCY11863 captured on biotinylated human Nectin-4, soluble CD137 ECD passed over, n = 4
T3 construct: extracellular domain; Section 17 says only 'Recombinant human CD137 (R&D systems)'; also called CD137 (human); Recombinant human CD137 (R&D systems)

[4] = target: T3, human CD137 extracellular domain; assay: SPR, direct binding of BCY11863 to immobilized human CD137, 1:1 fit; the text calls the off rate very slow (avidity from two CD137 bicycles)
[5] = target: T4, CD137 on Jurkat reporter cells (Promega kit CS196005) (UniProt Q07011 24-255, limits assumed); assay: cell-based or functional assay
[6] = target: T1, human Nectin-4 extracellular domain; assay: SPR direct binding, biotinylated Nectin-4 ECD on streptavidin chip, 37° C., n = 9
[7] = target: T1, human Nectin-4 extracellular domain; assay: SPR, direct binding of BCY11863 to immobilized human Nectin-4, 1:1 fit
[8] = target: T4, CD137 on Jurkat reporter cells (Promega …); assay: cell-based or functional assay; remark: listed apart in the source
[9] = target: T4, CD137 on Jurkat reporter cells (Promega …); assay: cell-based or functional assay; remark: listed apart in the source
[10] = target: T3, human CD137 extracellular domain; assay: dual binding SPR: BCY11863 captured on immobilized human Nectin-4, soluble human CD137 as analyte, 1:1 fit [ctd) D]
[11] = target: T5, mouse Nectin-4 extracellular domain (mouse, UniProt Q8R007 31-347, biotinylated where captured on the streptavidin chip); assay: SPR sandwich assay, BCY11863 captured on biotinylated human CD137, soluble Nectin-4 ECD passed over, n = 3
T5 construct: extracellular domain
T5 sequence (looked up): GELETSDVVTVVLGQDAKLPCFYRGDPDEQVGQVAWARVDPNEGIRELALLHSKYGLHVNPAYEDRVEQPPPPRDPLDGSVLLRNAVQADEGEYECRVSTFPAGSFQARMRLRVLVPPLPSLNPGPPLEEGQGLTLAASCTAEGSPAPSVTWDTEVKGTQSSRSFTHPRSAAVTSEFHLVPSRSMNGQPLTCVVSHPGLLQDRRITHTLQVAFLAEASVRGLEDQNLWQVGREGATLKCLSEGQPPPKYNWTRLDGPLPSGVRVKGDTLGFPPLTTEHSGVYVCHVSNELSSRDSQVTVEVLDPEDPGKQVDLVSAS

[12] = target: T1, human Nectin-4 extracellular domain; assay: SPR direct binding, biotinylated Nectin-4 ECD on streptavidin chip, 25° C., n = 7
[13] = target: T3, human CD137 extracellular domain; assay: SPR, direct binding of BCY11863 to immobilized human CD137, 1:1 fit; the text says the reported KD may be an overestimation (avidity)

T4 sequence (Q07011 24-255 limits assumed): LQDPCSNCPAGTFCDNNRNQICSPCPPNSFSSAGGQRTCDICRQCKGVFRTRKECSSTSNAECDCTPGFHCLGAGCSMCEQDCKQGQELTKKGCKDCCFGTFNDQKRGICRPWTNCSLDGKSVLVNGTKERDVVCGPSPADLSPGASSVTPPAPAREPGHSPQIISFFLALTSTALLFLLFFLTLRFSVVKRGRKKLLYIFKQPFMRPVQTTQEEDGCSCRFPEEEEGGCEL
T3 sequence (Q07011 24-186): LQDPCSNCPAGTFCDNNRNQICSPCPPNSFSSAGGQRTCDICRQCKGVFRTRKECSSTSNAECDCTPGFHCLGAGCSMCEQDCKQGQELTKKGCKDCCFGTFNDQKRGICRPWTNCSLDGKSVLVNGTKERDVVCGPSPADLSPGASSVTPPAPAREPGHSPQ
T2 sequence (A9YYE7 entry or part of it): as the sequence (Q07011 24-186) above, with P4L, N19S, R50K, T66I, P67S, F69Y, G75E, V149A counted along it

B1: heterotandem bicyclic peptide complex BCY11863 (peptide)
peptide 1: CP[1Nal][dD]CM[hArg]DWSTP[Hyp]WC
peptide 2: Ac-C[tBuAla]PE[dLys(PYA)]PYCFADPY[Nle]CA
modifications: linker I:1-I:5-I:15, II:1-II:8-II:15 via TATA; not fully specified (bridges); also: 1:2 complex: BCY8116 + 2x BCY8928
notes: also called Nectin-4/CD137 heterotandem
In the case of B1, the Kd [1] is reported as 12 nM, the Kd [2] is reported as 18 nM and the Kd [3] is reported as 6.3 nM. The koff [4] was 0.00035 s⁻¹, the “Fold improvement in EC50 over BCY10000 on same plate, NCI-H292” value [5] was 4.56 fold and the “Fold improvement in Emax over BCY10000 on same plate, NCI-H292” value [5] was 2.16 fold. The Kd [6] was 5.2 nM, the koff [7] was 0.00229 s⁻¹ and the kon [7] was 561000 M⁻¹ s⁻¹. For the same binder, the “Arithmetic mean EC50 (nM), CT26#7 co-culture” value [8] was 0.14 nM, the “Arithmetic mean EC50 (nM), HT1376 co-culture” value [8] was 0.52 nM and the “Arithmetic mean EC50 (nM), MC38#13 co-culture” value [8] was 0.31 nM. For the same binder, the “Arithmetic mean EC50 (nM), MDA-MB-468 co-culture” value [8] was 0.23 nM, the “Arithmetic mean EC50 (nM), NCI-H292 co-culture” value [8] was 0.28 nM and the “Arithmetic mean EC50 (nM), NCI-H322 co-culture” value [8] was 0.33 nM. The “Arithmetic mean EC50 (nM), T47D co-culture” value [8] was 0.42 nM, the “EC50 (nM), NCI-H292 co-culture” value [9] was 0.168 nM and the “Fold Induction over Background, NCI-H292 co-culture” value [9] was 81 fold. For the same binder, the Kd [10] was 6.26 nM, the koff [10] was 0.00275 s⁻¹ and the kon [10] was 439000 M⁻¹ s⁻¹. For the same binder, the Kd [11] was 6.7 nM, the Kd [12] was 5 nM and the Kd [13] was 0.368 nM.
